Several values for one entry are separate records, joined by “and”; a condition that tells them apart may be missing. Equal entries are not always repeated. Where two headings read alike, the source gives them in different places.
Assays:
[1] = biological target: recombinant Arabidopsis thaliana Nfu2 without the plastidial targeting sequence (Arabidopsis thaliana) (UniProt Q93W20); assay: SEC
[2] = biological target: recombinant Arabidopsis thaliana Nfu2 without the plastidial targeting sequence (Arabidopsis thaliana) (UniProt Q93W20); assay: SEC; remark: listed apart in the source

Q: With “recombinant Arabidopsis thaliana Nfu2 without the plastidial targeting sequence (from UniProt Q93W20 73-235) (natural protein)” as the substance, how does the stoichiometry N [1] read?
A: 4 and 2

Q: And the stoichiometry N [2]?
A: 2
